Test results published in US6090381.

Tests used:
[1] = molecular target: target antigen of the LL2 antibody (not given); assay: competitive binding assay, F(ab')2; competitor and antigen not named; parameters: unit not given beside the values
[2] = molecular target: target antigen of the LL2 antibody (not given); assay: competitive binding assay, F(ab')2; from the ID50 against unmodified control F(ab')2
[3] = molecular target: target antigen of the LL2 antibody (not given); assay: cell surface binding assay, calculated from the ID50 values; cells not named
[4] = molecular target: target antigen of the LL2 antibody (not given); assay: ELISA, calculated from ID50 values; coated reagent not named

Question: With F(ab')2 fragment of hLL2 (antibody) as the substance, how does the ID50 [1] read?
Answer: 0.384

Question: What about the Immunoreactivity, % of hLL2 [2] of the same substance?
Answer: 100%

Question: What about the Immunoreactivity (%), Cell Binding [3] of the same substance?
Answer: 100%

Question: What about the Immunoreactivity (%), ELISA [4] of the same substance?
Answer: 100%

Question: Which results are given for “dextran-doxorubicin-conjugated F(ab')2 fragment of hLL2 (antibody)”?
Answer: Immunoreactivity (%), Cell Binding [3]: 41.9%; Immunoreactivity (%), ELISA [4]: 42.2%
